Test results published in article PMC4822050, “Hemi-methylated DNA opens a closed conformation of UHRF1 to facilitate its histone recognition” (Nature Communications, 2016).

B1: Spacer of UHRF1 (residues 587–674) [human] / TTD of UHRF1 (residues 134–285) [human] (parent)
chain 1: PGPWTKEGKDRIKKLGLTMQYPEGYLEALANREREKENSKREEEEQQEGGFASPRTGKGKWKRKSAGGGPSRAGSPRRTSKKTKVEPY
chain 2: LYKVNEYVDARDTNMGAWFEAQVVRVTRKAPSRDEPCSSTSRPALEEDVIYHVKYDDYPENGVVQMNSRDVRARARTIIKWQDLEVGQVVMLNYNPDNPKERGFWYDAEISRKRETRTARELYANVVLGDDSLNDCRIIFVDEVFKIERPGE

Variants of: B1
Assay: ITC
Conditions: with TTD of UHRF1 (residues 134–285) [human]; Cell: Spacer; Sy: TTD

Going from chain 1 K62D to chain 1 R63A, the Kd rises from 5.94 µM to 21.4 µM (3.6-fold). The first binds more tightly here.

chain 1 S53D and chain 1 S80D are within 1.5-fold of each other in Kd: 1.15 µM for the first, 1.26 µM for the second.
